Test: soluble on expression in E. coli; label from the status in PepcDB or PDB records

Row | Sequence | soluble on expression in E. coli
1 | MIRLVAFDLDGTIGDTIPLCLAAFREATTPYVDHELSDDEIARTFGLNEEGMINQVVYGDSREKALNDFYVIYEEMHAILCPKPFEGMKTLIGQLHERNVIVVLITGKGIRSCDITLKQFGMDGCFDRIETGSSEKNRKSEAMKDILLYYGFKSNEMIYVGDAVSDIEACYFVKIQCLSAAWAASTDCEQLEKYNSGYVFSSVRLLRDFL | not soluble
2 | GRDGNNLNNPVLLLDTFDFGPREDNWFFYPGGNIGLYCPYSSKGAPEEDSAMVFVSNEVGEHSITTRDLSVNENTIIQFEINVGCSTDSSSADPVRLEFSRDFGATWHLLLPLCYHSSSLVSSLCSTEHHPSSTYYAGTTQGWRREVVHFGKLHLAGSVRFRWYQGFYPAGSQPVTWAIDNVYIGPQCEEMCYGHGSCINGTKCICDPGYSGPTCKISTKNPDFLKDDFEGQLESDRFLLMSGGKPSRKCGILSSGNNLFFNEDGLRMLVTRDLDLSHARFVQFFMRLGCGKGVPDPRSQPVLLQYSLNGGLSWSLLQEFLFSNSSNVGRYIALEMPLKARSGSTRLRWWQPSENGHFYSPWVIDQILIGGNISGNTVLEDDFSTLDSRKWLLHPGGTKMPVCGSTGDALVFIEKASTRYVVTTDIAVNEDSFLQIDFAASCSVTDSCYAIELEYSVDLGLSWHPLVRDCLPTNVECSRYHLQRILVSDTFNKWTRITLPLPSYTRSQATRFRWHQPAPFDKQQTWAIDNVYIGDGCLDMCSGHGRCVQGSCVCDEQWGGLYCDEPETSLPTQLKDNFNRAPSNQNWLTVSGGKLSTVCGAVASGLALHFSGGCSRLLVTVDLNLTNAEFIQFYFMYGCLITPSNRNQGVLLEYSVNGGITWNLLMEIFYDQYSKPGFVNILLPPDAKEIATRFRWWQPRHDGLDQNDWAIDNVLISRLENLYFQ | soluble
3 | QQVRQSPQSLTVWEGETAILNCSYEDSTFNYFPWYQQFPGEGPALLISIRSVSDKKEDGRFTIFFNKREKKLSLHITDSQPGDSATYFCAARYQGGRALIFGTGTTVSVSP | soluble
4 | MSLNFYYATSILIKEVVVSTKWLLGISLMLSTVAQANENSNQDTDISIPSPWKHQVEFGYQAHSGNTESESLNSRLKSEYTMGRHRTYGEWKFYKLDKNGKEDKRQSTFAFQSDYKLGPKTYLYGSFYGTNSRYTAYFKDHTLSGGLGYQFAYTDEMVLELELGPGFRYQKPNLDEIDDDDIVFPDLVQEAIFRSNLKAEWQALNNLRFEAEMTMVSGRSNTSLDSNISLTNDITDHIALKIRQSRQYHNRMPEGLSKADSVISVNLLFEFEGHHHHHH | not soluble
5 | MSLGIKAVIFDLDGVIVSTDEYHYRAWKAMADEEGIYFDKRINERLRGVGRMESLEIILEKAKKTYNTKEKIQMTERKNFIYRELLNELTPKHILKGVMNVLETLRAKNIKIAIGSSSKNTSIILEKIKLDKYFDAVADGREIKKSKPNPEVFLLAAKKLKVSPEECLIVEDADAGVEAAIAGGMKVLAVGYASNNIKANYKFKDLSCVDIKEVICKEGHHHHHH | soluble
6 | MSPIDQVLAAACALDASGKAPSLALIKSRLGNKFPMPILIQGLQQFKSMPKAERERLAALSIPEVEEQKPTEPVPLSVTTLAAQLTELQKGFEQAIALKNTEIMQLTNELIELKQRVNQLELQGKSV | soluble
7 | MSLDIVLVGCKGFGKEHLRIYSKLGYDVSIVERDSNEAKRCSELFRVYKVYDNYEDALRSGSNIVDLVVPDGLHYEMGSLALKSKKHLLVEKPITPDIDSGISLIQQAEESKLKLMVAEQFYFDPSVNEAIRRINNGEIGKPHTVIVRHQSFRELKGWRNEKSMMGRGILIDEGTHYIDTLLNFGGRYRSLRSFVHRTWDFLGEDTAEAVFNFENGMHGLFFYSWNYPEYPLLPEFEIIGDAGSIYEDIGTKPTEPWDQRKRKTAYGDIIVNGKHIPVEPYDVIEREISGFLNAVEKDEPVPMPPDLALRDIITIDRIYKASSDEGHHHHHH | soluble
8 | MRKPKITVIGGGTGIPVILKSLRLEDVEITAVVTVADDGGSSGELRSVMQLTPPGDLRNVLVALSDMPKFYEQIFQYRFAEGDGDFAGHPLGNLIIAGVAEMQGSTYNAMQSLTQFFHTTGKIYPSSEHPLTLHAVFKDGHEVVGESQIADYKGMIDHVYVTNTYNEETPTASRKVVDAILESDMIVLGPGSLFTSILPNLVIPEIKQALLETRAEVAYVCNIMTQRGETEHFTDADHVEVLKRHLGQDAIDTVLVNIEKVPESYMENNHFDEYLVQVEHDFSGLRKHARRVISSNFLKLEKGGAFHHGDFVVEELMNLVGTHLLEHHHHHH | not soluble
9 | MAHHHHHHNQQNKKVEGGYECKYCTFQTPDLNMFTFHVDSEHPNVVLNSSYVCVECNFLTKRYDALSEHNLKYHPGEENFKLTMVKRNNQTIFEQTINDLTF | soluble
10 | MVTHSKFPAAGMSRPLDTSLRLKTFSSKSEYQLVVNAVRKLQESGFYWSAVTGGEANLLLSAEPAGTFLIRDSSDQRHFFTLSVKTQSGTKNLRIQCEGGSFSLQSDPRSTQPVPRFDCVLKLVHHYMPPPGTPSFSLPPTEPSSEVPEQPPAQALPGSTPKRAYYIYSGGEKIPLVLSRPLSSNVATLQHLCRKTVNGHLDSYEKVTQLPGPIREFLDQYDAPL | soluble
11 | MKKLMITQEAGVATVLIKNPPVNILTIDLINELNAFILSLKDDRETKVVVFKSFHEAFFIAHLDLNVINGTSGGQAASIEFNHMIANIKAMKQLSIAVVDGVARGGGNEFVMACDLAYGTENSAFAQPELYINIPTGGQGAVQFARRLGKGKALQALLTGADFTAQQAETLNIITQFVLKAELDVFLAQLLSVIVGWEIRDIVMYKEIIAASIKDEAVGTELELRYFLERAREEKTQTIIAAFLKH | soluble
12 | MDIQIKRAYEPADPADGCRILVDRLWPRGLTKQQVACDLWLKEIAPTADLRKWFNHDPAKWAEFQRRYRDELSVNPCVKELLDRAAKGRLTLLYGARDAECNQAVVLRDYLLERN | not soluble
13 | GSSALLDTDEVGSELDDSDDDYLISEGEEDGPDENLMLCLYDKVTRTKARWKCSLKDGVVTINRNDYTFQKAQVEAEWV | soluble
14 | MSLKIFGTDGVRGKAGVKLTPMFVMRLGIAAGLYFKKHSQTNKILIGKDTRKSGYMVENALVSALTSIGYNVIQIGPMPTPAIAFLTEDMRCDAGIMISASHNPFEDNGIKFFNSYGYKLKEEEEKAIEEIFHDEELLHSSYKVGESVGSAKRIDDVIGRYIAHLKHSFPKHLNLQSLRIVLDTANGAAYKVAPVVFSELGADVLVINDEPNGCNINDQCGALHPNQLSQEVKKYRADLGFAFDGDADRLVVVDNLGNIVHGDKLLGVLGVYQKSKNALSSQAVVATNMSNLALKEYLKSQDLELKHCAIGDKFVSECMQLNKANFGGEQSGHIIFSDYAKTGDGLVCALQVSALVLESKQVSSVALNPFELYPQSLVNLNVQKKPPLESLKGYSALLKELDKLEIRHLIRYSGTENKLRILLEAKDEKLLESKMQELKEFFEGHLCEGHHHHHH | soluble
15 | MGSDKIHHHHHHMSFRSGVATFAGKSSYWFLHTFLHGGSSLPGKITLKLDPNILRTLGAKYDVIVITGTNGKTLTTALTVSVLHEKYPAILTNPTGSNMEQGIVTTFLNAKNPKTGRPLAVLEVDEANVIKVTHYIEPKAFVFTNIFRDQMDRYGEIYTTYQKILDGVALAPKATIIANGDSPIFNSKELPNPIQYYGFDNEPDTDMKAKPNTDGVLCPVCQHILHYHSLTYSNQGKYFCPNCGFARPELTYRLTALGEQTPTSSHFDVDGHPFTIQVGGTYNIYNALAAYAVGRFMGVAPEQIAHAFTANERVFGRQEVINVGDKRVTIILVKNPVGLDQVLHMIGTDKEQFSFVALLNANYADGIDTSWIWDGDFEQLTALDIPTFITGGERYKDITFRLKVAGVPDDQHIVEPDLEKVVDRITDLPTERVYVLATYTAMLQLRKILATKGYIKEGFGA | not soluble
16 | MSLSKIKWWEMSRSFVLDEPETAILQIKPFPLPGLAQVPARIVLSQYRGLFYLNAYQDLDYQQRIYKSAPLPLLSPEDLRNCVSPDNPIQVSDNWPPSNTLDTGITLTPLGFDCSVPPQWQLSLRYLLIDQRDPQHPLLAISHRQDMTQMDFTPLQPISVETGQQWLQALQKFPPWFRAFDSGSGPITLNAYTPPATADSVWKQFRALHEQLRTAKDKGPGIRQVEDFFALHDYRSIAIDHSEYPGLLNDIAYWTSEAGQLNTARNWLLEVLRRDLGRMPTYLNLADLDWALFEQRPLDNIHQGRAIEGYRLYCGMRLQRQMSVPPRVLKRLGLESANPQACQGFWPLVAAADAGDEAEVRRLLASGVSGEVMAEDGRSALLHALDAPHLEIARLLLAHGAHTSGQYQWSTLAMLAMQRDLKDSPDLNQGGRLKFLLQAGVAIDEPNSRGQTPLMKLAEQERNLQGFTWLLQHPQNLDLRTVDDGETALYRAFWSNNYPAMKLLIEAGADLNLSYGRGTCGNEPMGQSLLMLVADKISPDQHSPIVSMQDTLDMFTLLLEKGADPNVGQRCEKKGRPLLLEIIARKKRDDMLKVLQGFAPPAPATAFREGHHHHHH | not soluble
17 | WLSGYAGPADGTQQPDAPEHAVAREALVDLCRRRHFLSGTPQQLSTAALLSGCHARFGPLGVELRKNLASQWWSSMVVFREQVFAVDSLHQEPGSSQPRDSAFRLVSPESIREILQDREPSKEQLVAFLENLLKTSGKLRATLLHGALEHYVNCLDLVNRKLPFGLAQIGVCFHPVSNSNQTPSSVTRVGEKTEASLVWFTPTRTSSQWLDFWLRHRLLWWRKFAMSPSNFSSADCQDELGRKGSKLYYSFPWGKEPIETLWNLGDQELLHTYPGNVSTIQGRDGRKNVVPCVLSVSGDVDLGTLAYLYDSFQLAENSFARKKSLQRKVLKLHPCLAPIKVALDVGKGPTVELRQVCQGLLNELLENGISVWPGYSETVHSSLEQLHSKYDEMSVLFSVLVTETTLENGLIQLRSRDTTMKEMMHISKLRDFLVKYLASASNVAAALDHHHHHH | soluble
18 | MAGASHDIHPPKVEYFDLRDHTNTDPKGFVRHVDHYRVEPWGLYMARTSDHPQFHYLESWLLPDLGLRASIFHYHPYHQRDQDHYVDIGTFTRGDDVWKSEDHYLDLVVRTGRDTELLDVDELMEAHTTGLLDTATAEQAILTATTAIDGIAAHGHDLGRWLASIGMPIDWR | soluble
19 | MSLDVRIVDIDSEKPPEAKRCFLLSDVHGRADDIDTKYFNYDFDFLFFAGDMSNKSKYHEIKSFKKWINKMKAKYKIVVAGNHDLVFDREEFNDIIIGNHTAQEIRDLILKDKNIIYLEHEEITIEGIKIFGTPLSNIRIHQAFKEPYEDENDPHEEYLFFSIPDSTNIVLSHGVMKGYLDKEPNSRCKGSYGLRHAIDRVKPDLLICGHMHGCQGHTTHNNTTVILPSFCKRDKFGEETNNPYIIDIIPKLSLRMSIWKKSEKIPKMLKMNFPNVFFYLIFLILKKIWREELFVFEFYHDGEGHHHHHH | soluble
20 | SIRLPAHLRLQPIYWSRDDVAQWLKWAENEFSLSPIDSNTFEMNGKALLLLTKEDFRYRSPHSGDVLYELLQHILKQRDLEAEAAAAEAAAKA | soluble
21 | MGSDKIHHHHHHMTPSAGLGLKSQHYGDAIACDAEGLWFEVHPENYMSAGGPRLAALEAVRARRPVSLHGVGLSLAADTDPDPEHLQALKRLVDRFDPFVVSEHLAWSTHRGAHHPDLLPFPRTRAALDRICGNVARMQDALQRRVLIENPSLYLPLKGHALDEVDFLEALATRTGCGLLVDVNNVFVSAQNLGYAPETYLDALPAHAIGEIHLAGHAPDPGGSNLLIDTHGAPVAEVVWTLYARLIARIGPRPTLIERDDDIPDFAALMAERNRAVAVLASGQTAREPAHV | not soluble
